The chains are these.
B1: CURA2 MAb 1.51 (antibody, IgG2, V domains shown)
VH: EVQLVQSGAEVKKPGESLKISCKGSGYSFTSYWIGWVRQMPGKGLEWMGIIYPGDSDAKYSPSFQGQVTISADKSISTAYLQWSSLKASDTAMYYCARHYDYVWRNYRYTGWFDPWGQGTLVTVSS
VL: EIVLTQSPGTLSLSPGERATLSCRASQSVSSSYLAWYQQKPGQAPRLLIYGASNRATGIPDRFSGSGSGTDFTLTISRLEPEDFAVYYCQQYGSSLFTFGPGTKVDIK
B2: CURA2 MAb 1.29 (antibody, IgG2, V domains shown)
VH: EVQLVQSGAEVKKPGESLKISCKGSGYSFTSYWIGWVRQMPGKGLEWMGIIYPGDSDTRYSPSFQGQATISADKSISTAYLQWSSLKASDTAMYYCARHVDVGATIGGYYYYYHGMDVWGQGTTVTVSS
VL: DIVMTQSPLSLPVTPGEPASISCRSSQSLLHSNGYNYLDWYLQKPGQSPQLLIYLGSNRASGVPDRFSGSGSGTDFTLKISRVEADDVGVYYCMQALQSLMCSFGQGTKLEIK
B3: CURA2 MAb 6.4 (antibody, IgG2, V domains shown)
VH: QVQLVQSGAEVKKPGASVKVSCKASGYTFTSYDINWVRQATGQGLEWMGWINPNSGNTDYAQKFQGRVTMTRDTSISTAYMELSSLRSEDTAIYYCVRGFGYSYNYDYYYGMDVWGQGTTVTVSS
VL: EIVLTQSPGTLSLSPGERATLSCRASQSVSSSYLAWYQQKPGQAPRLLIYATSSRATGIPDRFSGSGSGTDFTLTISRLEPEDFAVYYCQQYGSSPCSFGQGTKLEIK
B4: CURA2 MAb 1.45 (antibody, IgG2, V domains shown)
VH: QVQLVQSGAEVKKPGASVKVSCKASGYTFTSYDINWVRQATGQGLEWMGWMNPNSGNTGYAQKFQGRVTMTRNTSISTAYMELSSLRSEDTAVYYCARGSGYSYGYDYYYGMDVWGQGTTVTVSS
VL: DIQMTQSPSSLSASVGDRVTINCRASQGISNDLAWYQQKPGKVPKLLIYAASTLQLGVPSRFSGSGSGTDFTLTISSLQPEDVATYYCQKYNSAPFTFGPGTKVDIK
B5: CURA2 MAb 1.46 (antibody, IgG2, V domains shown)
VH: QVQLVQSGAEVKKPGASVKVSCKASGYSFTSYDINWVRQATGQGLEWMGWMNPNNGNTGYAQKFQGRVTMTRNTSISTAYMELSSLRSEDTAVYYCARDIVVVVTATDYYYGMDVWGQGTTVTVSS
VL: DIQMTQSPSSLSASVGDRVTITCRASQGIRNDLGWYQQKPGKAPKRLIFAASSLPSGVPSRFSGSGSGTEFTLTISSLQPEDFATYYCLQHSGYPPTFGQGTKVEIK
B6: CURA2 MAb 1.19 (antibody, IgG2, V domains shown)
VH: QVQLVQSGAEVKKPGASVKVSCKASGYTFTSYDINWVRQATGQGLEWMGWMNPNSGNTGYAQKFQGRVTMTRNTSISTAYMELSSLRSEDTAVYYCARDVMITFGGVIVHYGMDVWGQGTTVTVSS
VL: DIQMTQSPSSLSASVGDRVTITCRASQGIRNDLGWYQQKPGKAPKRLIYAASSLQSGVPSRFSGSGSGTDFTLTISSLQPEDFATYYCLQHNSDPCSFGQGTKLEIR
B7: CURA2 MAb 1.18 (antibody, IgG2, V domains shown)
VH: QVQLVQSGAEVKKPGASVKVSCKASGYTFTSYDINWVRQATGQGLEWMGWMNPNSGNTGYAQKFQGRVTMTRNTSISTAYMELSSLRSEDTAVYYCAREGIAVAGTYYYYYGMDVWGQGTTVTVSS
VL: DIQMTQSPSSLSASVGDRVTITCRASQGIRNDLGWYQQKPGKAPKRLIYAASSLQSGVPSRFSGSGSGTEFTLTISSLQPEDFATYFCLQHNSYPFTFGPGTKVDIK

The values below come from patent publication US20060293506A1 (Amgen, published 2006).

The target of the experiment is p35 form of the 30664188.0.99 gene product (active fragment of PDGFD) (human, UniProt Q9GZP0 250-370). Nature of the experiment: cell-based or functional assay.
On to B1, for which the “IC50 (ng/mL), BrdU incorporation assay on NIH 3T3 cells” value was found to be 1000 ng/mL.
The same measure for B2: 150 ng/mL; for B3: 75 ng/mL.
The figure for B4 is 750 ng/mL; for B5 it is 500 ng/mL; for B6 it is 75 ng/mL.
In the case of B7, the “IC50 (ng/mL), BrdU incorporation assay on NIH 3T3 cells” value is over 1000 ng/mL.
